Source: the nanobody polyreactivity screen of Harvey et al. (2022)

Assay: yeast display, Sf9 membrane polyspecificity reagent, FACS + sequencing; frameworks hold sequencing errors
Method in brief: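 Nanobodies came from a synthetic yeast display library in Saccharomyces cerevisiae BJ5465, induced with galactose for 36–48 hours and stained for 1 hour at 4 °C with 10% biotinylated, detergent-solubilized Sf9 membrane reagent. Cells were enriched on streptavidin microbeads and then FACS-sorted, with low and high (top ~1%) gates set on anti-HA fluorescence for expression and streptavidin fluorescence for reagent binding. Each polyreactivity label reflects the gate a clone came from. Genes were amplified by colony PCR, sequenced by MiSeq 2 × 250 and filtered by CDR length.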

Row | Sequence | polyreactivity (PSR sort gate)
1 | QVQLEESRGGVVQAGGSLRLSCAASGSIITVYALGWERQAPGQERELVAGISRGGGTYYADSVTGRFTISRDNAKNCVYLQMNSLKPEDTAVYYCAAQIELWPYGIYQSGMYYWGQGTQVTVSS | low polyreactivity
2 | QVQLEESVGGLVQAGGSLRLSCAASGSIFSPNAMGSYRQAPGKERELVAAISSNGDSTYYADSVKGRFTISRDNAMNTVYLQMNSLKPEDTAVYYCAAVSIGPGEYDYWGQGTQVTVSS | low polyreactivity
3 | QVQLEETGGGLVQAGGSLRLSCAASGIILGKNAMGWYRQAPGKERELVASITSGAGITYYADSVKGRFTISRDNAKNTVYLQMNSLKPEDTAVYYCAADWSGDFFTDGYWGQGTQVTVSS | low polyreactivity
4 | QVQLEETVGGLVQAGGSLRLSSAATGLTFYLYVMGWYSQAHGKERELVAAISRRGGTTYYADSVKGRVTISRDKAKNTVYLQLNCLKPDDTAVYDCAADFFARTQRTFDYWGLGTQVTVSS | high polyreactivity
5 | QVQLGESCGGLVQAGGSLRLSCAASGPIFRSYAMGWYRQAPGKERELVARITSGGSTNYADSVKGRFTISRDNAKNTVYLQMNSLKPEDSAVYYCARDWGKSEYDYWGQGTQVTVSS | high polyreactivity
6 | QVQLGESGGALVQAGGSLRLSCAASGFTFCPYAMGWYRQAPGKERELDAAISQSGGRTSYADSVKGRFTISRDNAKNTVYLQMNSLKPEDTAVYYCAKRAYGYRSIYRMDYWGQGTLVTVSS | high polyreactivity
7 | QVQLGESGGGLDQAGGSLRLSCAASGRTFTNNAMGWYRQAPGKERELVAAITSGGRTNYADSVKGRFTISRDNAKNTVYLQMNSLKPEDTAVYYFAARIPSDGYYYWGQGTQVTVSS | high polyreactivity
8 | QVQLGESGGGLVQAGCSLRLSCAASGSIFIAYDMGWYRQAPGKERELVAAISIIDGSTYYADSVKRRFTISRDNAKNTVYLQMNSLKPEDTAVYYCSTRVFYLYDYWGQGTQVTVSS | low polyreactivity
9 | QVQLGESGGGLVQAGGSLRLRCAASGYIITYNAMGWYRQAPGKERELVAAISSGGSTNYADSVKGRFTISRDNAKITVYLQMNSLKPEDTAVFYCAAPVWTYDDYWGQGSQVTVSS | low polyreactivity
10 | QVQLGESGGGLVQAGGSLRLSCAASGFIFFYYAMGRYRQAPGKERELVAVNTRGGSTYYADSVKGRFTISRDNAKNTVYLQMNSLKPVDTAVYYCAAGIFYYRYYQVDYWGQGTQVTVSS | high polyreactivity
11 | QVQLGESGGGLVQAGGSLRLSCAASGFIFPIYAMGWYIKSPVTERELVAVISGSGGSTYYADSVKGRFTISRDNAKNTVYLLMNSLKPEDTAVYYCAALGRNVAVYKGGYWGQGNQVTVSS | low polyreactivity
12 | QVQLGESGGGLVQAGGSLRLSCAASGGIFDIYAMGWYRQAPGKERELVAAIRGSGGRTYYADSVKGRFTISRDNAKNSLYLQMNSLKPEDTAVYYCAARPSIVTGLRYGYWGQGTQVTVSS | high polyreactivity
13 | QVQLGESGGGLVQAGGSLRLSCAASGGTFYYYAMGWYRHAPGKERELVATISYSGASTYYADSVKGRFTISRDNAKNTVYLQRNSLKPEDTAVYYCNARPYNHRYRAWMDYWGQGTQVTVSS | high polyreactivity
14 | QVQLGESGGGLVQAGGSLRLSCAASGITFPGYAMGWYRQAPGKERELVARISRSGGSTYYADSVKGRFTISRDNAKNTVYFQMNSLKPEDTAVYYCAAGAYRSGGYSFDDWGQGTQVTVSS | low polyreactivity
15 | QVQLGESGGGLVQAGGSLRLSCAASGLILYGYAMGLYRPAPGKERELVATITIGGSTYYADSVKGRFTISRDNAKNTVYLQMNRLNPEDTAVYYCAAEDTLAGSVARFGEYDYWGQGSQVTVSS | low polyreactivity
16 | QVQLGESGGGLVQAGGSLRLSCAASGRIFNVNVMGWYRQAPGKDMELVAAITSGGSTNYADSVKGRFTISRDNAKNTVYLQMNSLKPEDTAVYYCAKDYQYGFGEYPYDYWGQGTQVTVSS | low polyreactivity

Row | Sequence | polyreactivity (PSR sort gate)
17 | QVQLGESGGGLVQAGGSLRLSCAASGRIFSTYVMGLYRQAPGKERELVAAITRGGSTNYADSVKGRFTISRDNAKNTVYLQMNSLKPEDTADYYCNAQRRGTYYWGQGTQVTVSS | high polyreactivity
18 | QVQLGESGGGLVQAGGSLRLSCAASGRIIYTNAMGWYRQAPGKETELVAAINRSGGITYYADSVKGRFTISRDNAKNTVYLQMNSLKPEDTAVYYCAKDYSWASYKHDYWGQGTQVTVSS | low polyreactivity
19 | QVQLGESGGGLVQAGGSLRLSCAASGRTFGLKAMGWYRQAPGKERELVAAINWRGTSTYYADSVKGRFTISRDNAKNTVYLQMNSLKPEDTAVYYCAARRSVGGYGYWGQGTQVTVSS | high polyreactivity
20 | QVQLGESGGGLVQAGGSLRLSCAASGRTFILNAMGWYRQAPGKERELVAAISWSGGSTYYADSVKGRFTISRDNAKNTVYLQMNSLKPEDTAVYYCAAVTYAYLFHTYDYWGQGTQVTVSS | low polyreactivity
21 | QVQLGESGGGLVQAGGSLRLSCAASGRTFYWYDMGWYRQAPGKERELVAAITRSGGSTDYADSVKGRFTISRDNAKNTVYLQMNSLKPEDTAVYYCNADYEVSSQRPAFDYWGQGTQVTVSS | low polyreactivity
22 | QVQLGESGGGLVQAGGSLRLSCAASGSIFKVNVMGWYRQEPGKERELVAAISRSGGNTYYADYVKGRFTISRDNAKNTVYLKMNSLKPEDTAVYYCAKDRRYYKAYDYWGQGTQVTVSS | low polyreactivity
23 | QVQLGESGGGLVQAGGSLRLSCAASGSIFTFNTMGRYRQAPGKERELVATISSGGRTSYADSVKGRFTISRDNAKNTVYLQMNSLKPADTAVYYCNKGYYGYTYVESNYWGLGTQVTVSS | low polyreactivity
24 | QVQLGESGGGLVQAGGSLRLSCAASGSIIQQYAIGWYRQAPGKERELVAAISWGDGSTYYADSVKGRFTISRDNAKNTVYLQKNSLKPEDTAVYYCNAYASAPLWSLEDDYWGQGTQVTVSS | low polyreactivity
25 | QVQLGESGGGLVQAGGSLRLSCAASGSISTYYPMGWYRQATGKERELVASITSRASTNYADSVKGRFTISRDNAKNTVYLQMNSLKPEDTAGNYCNADQRDYGSYVTKLDYWGQGTQVTVSS | low polyreactivity
26 | QVQLGESGGGLVQAGGSLRLSCAASGSTFAKYVMGWYRQAPGKERELVAAISRRGSSTYYADSVKGRFTISRDNAKNTVYLQMNSLKPEDTAVYYCNAGSFSRKARRYDYWGQGTQVTVSS | high polyreactivity
27 | QVQLGESGGGLVQAGGSLRLSCAASGSTFNENAMGWYRQAPGKERELVAAISNDGSTTYADSVKGRFTISRDNAKNTVYLQMNSLKPEDTALYYCNAVSYIDTQSSLGDSWGQGTQVTVSS | low polyreactivity
28 | QVQLGESGGGLVQAGGSLRLSCAASGSTFVGSAMGWYIQAPGKDRELVAAISYSGGSTYYADSVKGRFTISRDNAKNTVYLQMNSLKPEDTAVYYCAAEWSRHYYYGPRYHYWGQGTQVTVSS | low polyreactivity
29 | QVQLGESGGGLVQAGGSLRLSCAASGSTLYPYAMGWNRQATGTERELFAAISWSGTRTYYADSVKGRFTISRDNAKNTVYLQMNSLKQEDTAVYYCAKSRTRYPSNTKYDYWGQGTQVTVSS | high polyreactivity
30 | QVQLGESGGGLVQAGGSLRLSCADSGFTFASNAMGWYRQAPAKERELVAAISTSGGSTYYADSVKGRFTISRDNAKNTVYLQMNSLKPEDTAVYYFAVAVNGVSRIKYYYWGQGTQVTVSS | high polyreactivity
31 | QVQLGESGGGLVQAGGSLRLSCASSGRILNINSMGWYRQAPGKERELVAAITWRGGRTFYADSVKGRFTISRDYAKNKVYFEMNSLKPEDTAVYYCAASSNTWYPTGYYWGQGSQVTVSS | high polyreactivity
32 | QVQLGESGGGLVQAGGSLRLSGAASGRTFNDYTMGWYRPAPGKERELVAAISSSGVLTYYADSVKGRFTISRDNAKYTVYLQMNSLKPEDTAVDYAKRAGYDRRWTYDYRGQGTQVTVSS | high polyreactivity
